{"source": "paper PMC3695512", "about": "“Recognition of two distinct elements in the RNA substrate by the RNA-binding domain of the T. thermophilus DEAD box helicase Hera”", "key": {"Hera_RBD G462C": {"molecular_target": "T1, Hera_RBD G462C (Thermus thermophilus, UniProt O07897 424-510, G462C)", "T1 sequence": "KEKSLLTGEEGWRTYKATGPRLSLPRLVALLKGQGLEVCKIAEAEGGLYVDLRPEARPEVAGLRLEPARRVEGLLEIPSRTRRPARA", "assay": "fluorescence anisotropy; 5 mM Mg2+; negligible effect; Anisotropy: 50 mM Tris/HCl pH 7.5, 150 mM NaCl, 5 mM MgCl2 (Fig 2), 25 C, 50 nM RNA; EMSA: same Tris/NaCl, 12% glycerol, 25 C; NMR: 25 mM Bis-Tris/HCl pH 6.0, 50 mM NaCl, 10% D2O, 37 C", "conditions": "protein: recombinant; label: 5'-fluorescein; hairpin with 5' single strand"}, "Hera full-length": {"molecular_target": "T2, Hera full-length (Thermus thermophilus, UniProt O07897 1-510)", "T2 sequence": "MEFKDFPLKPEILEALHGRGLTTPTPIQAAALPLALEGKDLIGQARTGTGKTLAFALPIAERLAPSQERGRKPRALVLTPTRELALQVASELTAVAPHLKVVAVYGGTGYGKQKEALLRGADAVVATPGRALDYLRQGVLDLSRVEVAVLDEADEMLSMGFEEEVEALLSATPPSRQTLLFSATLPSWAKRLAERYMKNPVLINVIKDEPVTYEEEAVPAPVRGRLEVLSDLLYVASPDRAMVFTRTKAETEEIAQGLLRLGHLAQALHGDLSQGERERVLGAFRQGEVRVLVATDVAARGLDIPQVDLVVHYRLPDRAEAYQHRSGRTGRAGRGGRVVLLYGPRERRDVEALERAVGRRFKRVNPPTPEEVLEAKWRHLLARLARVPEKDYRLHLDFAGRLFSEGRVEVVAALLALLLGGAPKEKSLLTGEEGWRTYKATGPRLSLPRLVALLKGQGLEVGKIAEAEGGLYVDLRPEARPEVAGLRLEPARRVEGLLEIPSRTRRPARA", "assay": "fluorescence anisotropy; no ATP; 5 mM Mg2+; Anisotropy: 50 mM Tris/HCl pH 7.5, 150 mM NaCl, 5 mM MgCl2 (Fig 2), 25 C, 50 nM RNA; EMSA: same Tris/NaCl, 12% glycerol, 25 C; NMR: 25 mM Bis-Tris/HCl pH 6.0, 50 mM NaCl, 10% D2O, 37 C", "conditions": "protein: recombinant; chain copies: 2; label: 5'-fluorescein; hairpin with 5' single strand"}, "Hera_core": {"molecular_target": "T3, Hera_core (Thermus thermophilus, UniProt O07897 1-369)", "T3 sequence": "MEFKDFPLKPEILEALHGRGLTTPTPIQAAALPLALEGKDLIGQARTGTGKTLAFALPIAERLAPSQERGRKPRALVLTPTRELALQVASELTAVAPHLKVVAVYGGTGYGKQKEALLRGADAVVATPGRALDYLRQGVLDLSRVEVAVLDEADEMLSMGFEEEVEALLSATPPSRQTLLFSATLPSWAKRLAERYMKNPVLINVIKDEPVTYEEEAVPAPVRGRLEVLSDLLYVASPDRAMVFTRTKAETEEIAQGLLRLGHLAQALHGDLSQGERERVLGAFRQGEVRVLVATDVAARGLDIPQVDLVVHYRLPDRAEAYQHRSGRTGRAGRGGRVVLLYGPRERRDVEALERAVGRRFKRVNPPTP", "assay": "fluorescence anisotropy; no ATP; 5 mM Mg2+; Anisotropy: 50 mM Tris/HCl pH 7.5, 150 mM NaCl, 5 mM MgCl2 (Fig 2), 25 C, 50 nM RNA; EMSA: same Tris/NaCl, 12% glycerol, 25 C; NMR: 25 mM Bis-Tris/HCl pH 6.0, 50 mM NaCl, 10% D2O, 37 C", "conditions": "protein: recombinant; label: 5'-fluorescein; hairpin with 5' single strand"}, "GST-Hera_RBD": {"molecular_target": "T4, GST-Hera_RBD (Thermus thermophilus, UniProt O07897 424-510)", "T4 sequence": "T1 sequence with C39G", "assay": "fluorescence anisotropy; no ATP; 5 mM Mg2+; Anisotropy: 50 mM Tris/HCl pH 7.5, 150 mM NaCl, 5 mM MgCl2 (Fig 2), 25 C, 50 nM RNA; EMSA: same Tris/NaCl, 12% glycerol, 25 C; NMR: 25 mM Bis-Tris/HCl pH 6.0, 50 mM NaCl, 10% D2O, 37 C", "conditions": "protein: recombinant; tags: N-terminal GST; label: 5'-fluorescein; hairpin with 5' single strand"}, "Hera_RBD A452C": {"molecular_target": "T5, Hera_RBD A452C (Thermus thermophilus, UniProt O07897 424-510, A452C)", "T5 sequence": "T1 sequence with A29C, C39G", "assay": "fluorescence anisotropy; 5 mM Mg2+; Anisotropy: 50 mM Tris/HCl pH 7.5, 150 mM NaCl, 5 mM MgCl2 (Fig 2), 25 C, 50 nM RNA; EMSA: same Tris/NaCl, 12% glycerol, 25 C; NMR: 25 mM Bis-Tris/HCl pH 6.0, 50 mM NaCl, 10% D2O, 37 C", "conditions": "protein: recombinant; label: 5'-fluorescein; hairpin with 5' single strand"}}, "note": "Substitutions are numbered along the chain they refer to."}
{"binder": "GCAGGUCCCAAGGGUUGGGCUGUUCGCCCAUU (structured_RNA)", "note": "[32mer]", "values": [{"measurement": "binding signal", "setting": "Hera_RBD G462C", "result": "< 5", "unit": "fold Kd increase"}, {"measurement": "Kd", "setting": "Hera full-length", "result": "130 ± 70", "unit": "nM"}, {"measurement": "Kd", "setting": "Hera_core", "result": "1000 ± 180", "unit": "nM"}, {"measurement": "Kd", "setting": "GST-Hera_RBD", "result": "450 ± 36", "unit": "nM"}, {"measurement": "binding signal", "setting": "Hera_RBD A452C", "result": "~10", "unit": "fold Kd increase"}]}
